Experimental data: patent publication US20200115702A1

Biological target: BAFF-Fc (Sino Biological) (human) (UniProt Q9Y275)
Assay: cell-based or functional assay

Chain of UniProt Q9Y275 (Q9Y275 134-285): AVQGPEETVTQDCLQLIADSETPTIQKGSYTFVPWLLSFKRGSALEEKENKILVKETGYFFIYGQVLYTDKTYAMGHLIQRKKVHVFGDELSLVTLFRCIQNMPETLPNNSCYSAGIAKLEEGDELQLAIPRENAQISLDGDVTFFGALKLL

endogenous BAFF receptor, BR3 (from UniProt Q96RJ3 1-78)
IC50, inhibition of BAFF bioactivity in the mouse splenocyte assay: 121 nM
